Results on 7 molecules are retold here after article PMC11727998, “Purification and Electron Transfer from Soluble c-Type Cytochrome TorC to TorA for Trimethylamine N-Oxide Reduction” (International Journal of Molecular Sciences, 2024).

B1: TorA with soluble TorC (physiological electron transfer assay) (Escherichia coli K-12) (protein)
chain: AQAATDAVISKEGILTGSHWGAIRATVKDGRFVAAKPFELDKYPSKMIAGLPDHVHNAARIRYPMVRVDWLRKRHLSDTSQRGDNRFVRVSWDEALDMFYEELERVQKTHGPSALLTASGWQSTGMFHNASGMLAKAIALHGNSVGTGGDYSTGAAQVILPRVVGSMEVYEQQTSWPLVLQNSKTIVLWGSDLLKNQQANWWCPDHDVYEYYAQLKAKVAAGEIEVISIDPVVTSTHEYLGREHVKHIAVNPQTDVPLQLALAHTLYSENLYDKNFLANYCVGFEQFLPYLLGEKDGQPKDAAWAEKLTGIDAETIRGLARQMAANRTQIIAGWCVQRMQHGEQWAWMIVVLAAMLGQIGLPGGGFGFGWHYNGAGTPGRKGVILSGFSGSTSIPPVHDNSDYKGYSSTIPIARFIDAILEPGKVINWNGKSVKLPPLKMCIFAGTNPFHRHQQINRIIEGLRKLETVIAIDNQWTSTCRFADIVLPATTQFERNDLDQYGNHSNRGIIAMKQVVPPQFEARNDFDIFRELCRRFNREEAFTEGLDEMGWLKRIWQEGVQQGKGRGVHLPAFDDFWNNKEYVEFDHPQMFVRHQAFREDPDLEPLGTPSGLIEIYSKTIADMNYDDCQGHPMWFEKIERSHGGPGSQKYPLHLQSVHPDFRLHSQLCESETLRQQYTVAGKEPVFINPQDASARGIRNGDVVRVFNARGQVLAGAVVSDRYAPGVARIHEGAWYDPDKGGEPGALCKYGNPNVLTIDIGTSQLAQATSAHTTLVEIEKYNGTVEQVTAFNGPVEMVAQCEYVPASQVKS
notes: recombinant TorA plus soluble TorC (first 20 residues, membrane anchor, deleted); with Cytochrome c-type protein TorC
B2: TorA (TMAO reductase) (Escherichia coli K-12) (protein)
chain: B1 chain
notes: recombinant from plasmid pTorAD (torAD in pJF119EH), expressed in E. coli; bis-MGD enzyme; monomer; also purified as TorAD2 complex; first 48 and last 5-10 residues not seen in crystal
B3: TorSN (periplasmic detection domain of TorS) (domain or fragment, E. coli, UniProt P39453 30-332, looked up)
chain: NLRFISQVEKDNTQALIPTMNMARQLSEASAWELFAAQNLTSADNEKMWQAQGRMLTAQSLKINALLQALREQGFDTTAIEQQEQEISRSLRQQGELVGQRLQLRQQQQQLSQQIVAAADEIARLAQGQANNATTSAGATQAGIYDLIEQDQRQAAESALDRLIDIDLEYVNQMNELRLSALRVQQMVMNLGLEQIQKNAPTLEKQLNNAVKILQRRQIRIEDPGVRAQVATTLTTVSQYSDLLALYQQDSEISNHLQTLAQNNIAQFAQFSSEVSQLVDTIELRNQHGLAHLEKASARGQYS
notes: TorS, sensor histidine kinase of E. coli, periplasmic detection domain; also called periplasmic TorS; source: from plasmid pET-Sp (pET21), purified following published procedures [7]
B4: TorD (natural protein, E. coli, UniProt P36662 1-199, looked up)
chain: MTTLTAQQIACVYAWLAQLFSRELDDEQLTQIASAQMAEWFSLLKSEPPLTAAVNELENRIATLTVRDDARLELAADFCGLFLMTDKQAALPYASAYKQDEQEIKRLLVEAGMETSGNFNEPADHLAIYLELLSHLHFSLGEGTVPARRIDSLRQKTLTALWQWLPEFVARCRQYDSFGFYAALSQLLLVLVECDHQNR
notes: source: co-expressed from plasmid pTorAD and co-purified with TorA
B5: soluble TorC (heme-containing, holo-TorC) (natural protein, E. coli, UniProt P33226 21-390, looked up)
chain: VAIGIVIGIALIVLPHVGIKVTSTTEFCVSCHSMQPVYEEYKQSVHFQNASGVRAECHDCHIPPDIPGMVKRKLEASNDIYQTFIAHSIDTPEKFEAKRAELAEREWARMKENNSATCRSCHNYDAMDHAKQHPEAARQMKVAAKDNQSCIDCHKGIAHQLPDMSSGFRKQFDELRASANDSGDTLYSIDIKPIYAAKGDKEASGSLLPASEVKVLKRDGDWLQIEITGWTESAGRQRVLTQFPGKRIFVASIRGDVQQQVKTLEKTTVADTNTEWSKLQATAWMKKGDMVNDIKPIWAYADSLYNGTCNQCHGAPEIAHFDANGWIGTLNGMIGFTSLDKREERTLLKYLQMNASDTAGKAHGDKKEEK
modifications: heme c at the five CXXCH motifs (iron saturation about 75% of five hemes)
notes: TorC, pentahemic c-type cytochrome of E. coli, lacking the N-terminal 20 amino acid membrane anchor (first 60 nucleotides of the gene deleted); also called soluble periplasmic TorC; source: E. coli HM125 with pTorC-SS and pEC86 (ccmABCDEFGH), hemin added, purified (Ni-NTA, gel filtration)

The target of one series is TorA (Escherichia coli) (UniProt P33225). The settings on record: cited from earlier work.
Another series has as its target T1, soluble TorC (Escherichia coli, UniProt P33226).
T1 construct: expressed in E. coli HM125 with ccmABCDEFGH; 43 kDa monomer
The series is described as follows: UV-visible spectroscopy, reduction of TorC. It is filed as biochemical. Particulars: electron donor, anaerobic.

Substrate in the series “GC-MS of derivatized TMA”: C[N+](C)(C)[O-]
The series is described as follows: GC-MS of derivatized TMA. It is filed as biochemical, Escherichia coli. Particulars: 5 µM menadiol as electron donor via soluble TorC, 100 mM Sörensen buffer pH 6.5, 37 °C, anaerobic. The source says:
GC-MS of derivatized TMA on TorA with soluble TorC (physiological electron transfer assay)

Substrate in the series “purified protein”: C[N+](C)(C)[O-]
The experiment in a line: purified protein. Particulars: 400 µM benzyl viologen (dithionite-reduced), 100 mM Sörensen buffer pH 6.5, 37 °C, anaerobic, 3 nM TorA. It is filed as biochemical, Escherichia coli.

The target of series [1] is T2, apo-TorC (soluble TorC without hemes) (E. coli, UniProt P33226 21-390).
T2 construct: TorC of E. coli lacking the N-terminal 20 amino acid membrane anchor, made without heme insertion; also called soluble apo-TorC; source: E. coli, 'soluble torC' gene expressed without the ccm gene cluster (pEC86) and without hemin, purified
T2 sequence (looked up): B5 chain
The experiment in a line: SPR; Biacore T200, CM5 chip, target immobilised via amine coupling, 25 °C, 30 µL/min, 20 mM phosphate, 150 mM NaCl, 0.005% Tween 20, pH 7.4; global fit, 1:1 binding; mean of three measurements. The settings on record: both partners purified. (Surface plasmon resonance follows binding to a sensor surface in real time, without labels.)

Series [2] has as its target B5. Described as above. Particulars: both partners purified.
The target of series [3] is T3, TorA (TMAO reductase) (E. coli, UniProt P33225 40-848).
T3 construct: TorA, TMAO reductase of E. coli, with bis-MGD cofactor; Named only 'TorA' in the crosslinking, the activity assay and the crystal structure; the preparation may have held TorD; source: purified following published procedures [31]
T3 sequence: B1 chain
The experiment in a line: SEC; TorA co-purified with TorD (plasmid pTorAD); TorAD2 complex of 136.5 kDa on analytical gel filtration. The settings on record: partners not purified. For orientation: In gel filtration, larger molecules generally elute earlier.

Series [4] has as its target TorAD2 (TorA purified in a 1:2 stoichiometry with TorD) (E. coli) (UniProt P33225). The experiment in a line: SPR; Biacore T200, CM5 chip, target immobilised via amine coupling, 25 °C, 30 µL/min, 20 mM phosphate, 150 mM NaCl, 0.005% Tween 20, pH 7.4; global fit, 1:1 binding; mean of three measurements.
For series [5] the target is unchanged. The series is described as follows: MST; Monolith NT.115, TorAD2 labelled with NT-647-NHS at constant concentration (5 nM), soluble TorC titrated, 25 °C, premium capillaries.
For series [6], the target named is T3, TorA (TMAO reductase). The experiment in a line: cell-based or functional assay.
A further series has as its target T4, apo-TorA (E. coli, UniProt P33225 40-848).
T4 construct: TorA, TMAO reductase of E. coli, apo form; Apo form (without cofactor); source: purified following published procedures [31]
T4 sequence: B1 chain
The experiment in a line: SPR; Biacore T200, CM5 chip, target immobilised via amine coupling, 25 °C, 30 µL/min, 20 mM phosphate, 150 mM NaCl, 0.005% Tween 20, pH 7.4; global fit, 1:1 binding; mean of three measurements. Particulars: both partners purified.

In the case of TorC TorCN (from UniProt P33226), the Kd (in general, the equilibrium constant for the complex coming apart) with TorA (Escherichia coli) is 45 nM.

As for `Cc1cc(O)c2ccccc2c1O` [menadiol], the “UV-visible spectroscopy, reduction of TorC” value at soluble TorC is given as “menadiol can reduce soluble TorC, which can be re-oxidized by TorA”.

For B1, in the series “GC-MS of derivatized TMA”, the Km (as a rule, the concentration of substrate that gives half-maximal velocity) worked out at 9.8 ± 2.53 µM and the kcat – broadly, the maximal rate divided by the concentration of active sites – is 0.145 ± 0.05 s⁻¹.

Take B2: in “purified protein”, the Michaelis-Menten constant (Km) turned out to be 22.06 ± 0.75 µM and the catalytic constant (kcat) is 228 ± 46.3 s⁻¹.

Consider B3, for which the Kd in [1] was 943 nM; in series [2] it was 1030 nM.

As for B4, in the series with TorA (TMAO reductase) [3], the stoichiometry N – broadly, a count of units in the complex or per binding partner – stood at 2 TorD per TorA.

For the molecule B5, the equilibrium dissociation constant (Kd) is 309 nM in series [4], 1070 nM in series [5] and 266 nM in the series with apo-TorA. Also, in the series with TorA (TMAO reductase) [6], the “kcat of TMAO reduction by TorA with menadiol and soluble TorC as electron donors (TMA quantified by GC-MS)” value is 0.145 s⁻¹.
